Data published in US20110318347A1.

Legend:
[1] = molecular target: human CXCR4 (human); assay: competition vs [125I]-238D2 (3 nM), membranes of HEK293T cells expressing CXCR4; Table B-3 competition vs [125I]-238D2, up to 0.5 µM; bound only
[2] = molecular target: human CXCR4 (human); assay: competition vs [125I]-238D4 (3 nM), membranes of HEK293T cells expressing CXCR4; Table B-3 competition vs [125I]-238D4, up to 0.5 µM; bound only
[3] = molecular target: human CXCR4 (human); assay: competition vs [125I]-238D2 (3 nM), membranes of HEK293T cells expressing CXCR4; Table B-3 competition vs [125I]-238D2, at 0.5 µM: no displacement
[4] = molecular target: human CXCR4 (human); assay: competition vs [125I]-238D4 (3 nM), membranes of HEK293T cells expressing CXCR4; Table B-3 competition vs [125I]-238D4, at 0.5 µM: no displacement
[5] = molecular target: human CXCR4 (human); assay: competition vs [125I]-CXCL12 (40 pM), membranes of HEK293T cells expressing CXCR4; Table B-3 competition vs [125I]-CXCL12, up to 0.5 µM; bound only
[6] = molecular target: human CXCR4 (human); assay: periplasmic fraction (1:10), displacement of [125I]-CXCL12, HEK293T-CXCR4 membranes; - = 0-29%, + = 30-69%, ++ = 70-100%; screening of clones (Table B-2): 30-69% displacement of [125I]-CXCL12, HEK293T-CXCR4 membranes
[7] = molecular target: human CXCR4 (human)
[8] = molecular target: CCR5 (UniProt P51681); assay: cell-based or functional assay
CCR5, sequence (P51681 whole entry): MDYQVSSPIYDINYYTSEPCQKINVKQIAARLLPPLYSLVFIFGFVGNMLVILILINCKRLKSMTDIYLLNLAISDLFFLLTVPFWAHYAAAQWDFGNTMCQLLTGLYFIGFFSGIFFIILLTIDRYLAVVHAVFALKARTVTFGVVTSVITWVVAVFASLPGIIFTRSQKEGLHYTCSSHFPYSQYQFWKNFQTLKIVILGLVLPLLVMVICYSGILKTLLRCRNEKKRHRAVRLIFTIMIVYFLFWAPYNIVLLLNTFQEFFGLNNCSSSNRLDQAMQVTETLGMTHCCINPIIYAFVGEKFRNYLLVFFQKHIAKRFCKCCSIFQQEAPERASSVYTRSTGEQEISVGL

[9] = molecular target: human CXCR4 (human); assay: cell-based or functional assay
[10] = molecular target: human CXCR4 (human); assay: competition vs [125I]-CXCL12; potency relative to monovalent 238D2
[11] = molecular target: human CXCR4 (human); assay: competition vs [125I]-CXCL12; potency relative to monovalent 238D4
[12] = molecular target: human CXCR4 (human); assay: competition with [125I]-CXCL12 on HEK293T-CXCR4 membranes
[13] = molecular target: human CXCR4 (human); assay: competition vs [125I]-CXCL12, membranes of HEK293T cells expressing CXCR4
[14] = molecular target: human CXCR4 (human); assay: competition vs [125I]-CXCL12, membranes of HEK293T cells expressing CXCR4; displacement at 0.5 µM, maximum not reached

B1: Nanobody 237A6 (VHH)
VHH: EVQLVESGGGLVQAGGSLRLSCAASGSIFSLNAMGWYRQAPGKQRELVAGITSSTSTYYADSVKGRFTISRDNTKNTVYLQMNSLKPEDTAVYYCNVDCPDYYSDYECPLEDRGQGTQVTVSS
- pKi [1]: < 6.3
- pKi [2]: < 6.3
- Displacem. (%) [3]: 0%
- Displacem. (%) [4]: 0%
- pKi [5]: < 6.3
- percent inhibition of specific [125I]-CXCL12 binding [6]: 30 to 69%

B2: 238D2-20GS-238D4 (VHH)
chain: EVQLVESGGGLVQTGGSLRLSCAASGFTFSSYAMSWVRQAPGKGLEWVSGIKSSGDSTRYAGSVKGRFTISRDNAKNMLYLQMYSLKPEDTAVYYCAKSRVSRTGLYTYDNRGQGTQVTVSSGGGGSGGGGSGGGGSGGGGSEVQLMESGGGLVQAGGSLRLSCAASGRTFNNYAMGWFRRAPGKEREFVAAITRSGVRSGVSAIYGDSVKDRFTISRDNAKNTLYLQMNSLKPEDTAVYTCAASAIGSGALRRFEYDYSGQGTQVTVSS
- IC50 (read off the curve), migration of Jurkat cells towards 0.3 nM CXCL12 [7]: 200 pM
- Anti-HIV-1 activity (in nM), PBMC/BaL [8]: > 100 nM
- Anti-HIV-1 activity (in nM), U87.CD4.CCR5/BaL [8]: > 100 nM
- IC50, HIV-1 BaL, PBMC donor 1 [8]: > 1000 ng/mL
- IC50, HIV-1 BaL, PBMC donor 2 [8]: > 1000 ng/mL
- IC90, HIV-1 BaL, PBMC donor 1 [8]: > 1000 ng/mL
- IC90, HIV-1 BaL, PBMC donor 2 [8]: > 1000 ng/mL
- nM IC50, HIV-1 BAL, PBMC donor 1 [8]: > 67 nM
- nM IC50, HIV-1 BAL, PBMC donor 2 [8]: > 67 nM
- Anti-HIV-1 activity (in nM), MT-4/NL4.3 [9]: 0.25 nM
- Anti-HIV-1 activity (in nM), PBMC/HE [9]: 2.3 nM
- Anti-HIV-1 activity (in nM), PBMC/NL4.3 [9]: 0.2 nM
- Anti-HIV-1 activity (in nM), U87.CD4.CXCR4/NL4.3 [9]: 0.35 nM
- Chemotaxis, Jurkat/0.3 nM CXCL12, Imax (%) [9]: 100%
- Chemotaxis, Jurkat/0.3 nM CXCL12, pKi or pIC50 [9]: 10.2
- IC50, HIV-1 NL4.3, MT-4 cells, exp. 1 [9]: 6.9 ng/mL
- IC50, HIV-1 NL4.3, PBMC donor 1 [9]: 18.2 ng/mL
- IC50, HIV-1 NL4.3, PBMC donor 2 [9]: 9.2 ng/mL
- IC50, HIV-1 UG270, PBMC donor 1 [9]: 24.2 ng/mL
- IC50, HIV-1 UG270, PBMC donor 2 [9]: 83.1 ng/mL
- IC90, HIV-1 NL4.3, MT-4 cells, exp. 1 [9]: 23.8 ng/mL
- IC90, HIV-1 NL4.3, PBMC donor 1 [9]: 97.2 ng/mL
- IC90, HIV-1 NL4.3, PBMC donor 2 [9]: 73.1 ng/mL
- IC90, HIV-1 UG270, PBMC donor 1 [9]: 139 ng/mL
- IC90, HIV-1 UG270, PBMC donor 2 [9]: 168 ng/mL
- nM IC50, HIV-1 NL4.3, PBMC donor 1 [9]: 0.61 nM
- nM IC50, HIV-1 NL4.3, PBMC donor 2 [9]: 0.31 nM
- nM IC50, HIV-1 UG270, PBMC donor 1 [9]: 0.81 nM
- nM IC50, HIV-1 UG270, PBMC donor 2 [9]: 2.77 nM
- Rel. potency [10]: 27 fold
- Rel. potency [11]: 17 fold
- IC50 (read off the curve) [12]: 500 pM
- Displacem. (%) [13]: 103%
- pKi [13]: 9.44

B3: 238D2-20GS-238C5 (VHH)
chain: EVQLVESGGGLVQTGGSLRLSCAASGFTFSSYAMSWVRQAPGKGLEWVSGIKSSGDSTRYAGSVKGRFTISRDNAKNMLYLQMYSLKPEDTAVYYCAKSRVSRTGLYTYDNRGQGTQVTVSSGGGGSGGGGSGGGGSGGGGSEVQLMESGGGLVQAGGSLRLACAASGFTFEDYAIGWFRKAPGKEREGVSCISGSDGSTTYADSVKGRFTISTDNAKNTVYLEMNSLKPEDTAVYYCAQQYGVGGRVVCPGPYEYDVWGQGTQVTVSS
- Rel. potency [10]: 0.18 fold
- Displacem. (%) [13]: 110%
- pKi [13]: 7.35

B4: Nanobody 237G7 (VHH, from a related filing, part only)
VHH: EVQLVESGGGLVQPGGSLRLSCAASSFIGNYHAIVWLRQAPGKELEGVSCITSRDSITYYASFVKGRFTISRDDAKNTVYLQMNNLKPEDTAVYYCAVBTSMTCPTLIVRFNYRGQGTQVTVSS
- pKi [1]: < 6.3
- pKi [2]: < 6.3
- Displacem. (%) [3]: 0%
- Displacem. (%) [4]: 0%
- pKi [5]: < 6.3
- percent inhibition of specific [125I]-CXCL12 binding [6]: 30 to 69%

B5: 238D2-20GS-238B10 (VHH)
chain: EVQLVESGGGLVQTGGSLRLSCAASGFTFSSYAMSWVRQAPGKGLEWVSGIKSSGDSTRYAGSVKGRFTISRDNAKNMLYLQMYSLKPEDTAVYYCAKSRVSRTGLYTYDNRGQGTQVTVSSGGGGSGGGGSGGGGSGGGGSEVQLVESGGGFVQAGGSLRLSCETSGRPLLGYTIAWFRQVPGKEREFVAYHRWSDGANLYADSVKGRFTISGHNAKNTVSLQMNSLKPEDTAVYYCAAARMTTSNDKEYLYWGQGTQVTVSS
- Rel. potency [10]: < 0.1 fold
- pKi [13]: < 7
- Displacem. (%) [14]: 43%
